Experimental data: patent publication US10709762B2, “Use of M-CSF for preventing or treating myeloid cytopenia and related complications” (priority 2013, dated 2020)

Tested on: single HSC
Experiment: Single cell gene expression profiling of HSC (nanofluidic real time PCR)
Format: cell-based, mice
Conditions: 16 h culture in the presence of M-CSF
Procedure: CD150+CD34− KSLF HSC or CD150+CD34− CD48− KSLF HSC (single cells) were sorted into S-clone SF-03 medium (Sanko Jyunyaku) with 10% FBS supplemented with 100 U/ml penicillin and […] streptomycin (both Invitrogen) and cultivated in uncoated U-Shape 96 well plates (Greiner) in 100 μl SCM, 20 ng/ml rSCF, 50 ng/ml rTPO+/−100 ng/ml rM-CSF or 100 ng/ml rGM-CSF or 100 ng/ml rG-CSF. All cytokines were murine and from PeproTech. Cell viability was analyzed by AnnexinV and Propidium iodide FACS staining^35.
Single cells were sorted using the autoclone module on a FACSARIA™ III sorter (Becton-Dickinson) directly into 96 wells plate in the CELLS DIRECT™ Reaction Mix (Invitrogen). Individual cell lysis, cDNA synthesis and amplification was performed according to FLUIDIGM Advanced Development Protocol and single cell microfluidic real time PCR using Dynamic Array IFCs (BIOMARK™ FLUIDIGM) was performed by a trained technician of FLUIDIGM Inc. Preamplified products (22 cycles) were diluted 5-fold prior to analysis with Universal PCR Master Mix and inventoried TAQMAN® gene expression assays (ABI) in 96.96 DYNAMIC ARRAY™ on a BIOMARK™ system (FLUIDIGM). Ct values were calculated from the system's software (BIOMARK™ Real-time PCR Analysis; FLUIDIGM) and filtered according to a set of quality control rules outlined below.

B1: M-CSF: recombinant murine macrophage colony stimulating factor from PeproTech, used in Example 1 (protein, UniProt P07141 33-552, looked up)
Macrophage colony-stimulating …: KEVSEHCSHMIGNGHLKVLQQLIDSQMETSCQIAFEFVDQEQLDDPVCYLKKAFFLVQDIIDETMRFKDNTPNANATERLQELSNNLNSCFTKDYEEQNKACVRTFHETPLQLLEKIKNFFNETKNLLEKDWNIFTKNCNNSFAKCSSRDVVTKPDCNCLYPKATPSSDPASASPHQPPAPSMAPLAGLAWDDSQRTEGSSLLPSELPLRIEDPGSAKQRPPRSTCQTLESTEQPNHGDRLTEDSQPHPSAGGPVPGVEDILESSLGTNWVLEEASGEASEGFLTQEAKFSPSTPVGGSIQAETDRPRALSASPFPKSTEDQKPVDITDRPLTEVNPMRPIGQTQNNTPEKTDGTSTLREDHQEPGSPHIATPNPQRVSNSATPVAQLLLPKSHSWGIVLPLGELEGKRSTRDRRSPAELEGGSASEGAARPVARFNSIPLTDTGHVEQHEGSSDPQIPESVFHLLVPGIILVLLTVGGLLFYKWKWRSHRDPQTLDSSVGRPEDSSLTQDEDRQVELPV
cells with a myeloid gene expression signature: strong increase | number of PU.1+ cells: doubling
